Assay results reported in PMC7619190 (2026).
Where no end group is shown, it is not given here. [ ]: non-standard residue; d: D form. pY = N[C@@H](Cc1ccc(OP(=O)(O)O)cc1)C(=O)O

Molecular target: human SRC SH2 domain (Gln147-Lys252), wild type (human, UniProt P12931-1 147-252)
Assay: ITC; SH2 pretreated with 1 mM TCEP

## EPQ[pY]EEIP [optimized SRC binding phosphopeptide (EPQpYEEIP)]
  Kd: 293 nM
